The data set in a line: protein stability index of a GFP-peptide fusion (GPS, HEK-293T) (PSI 1-6); higher = more stable. The settings on record: c terminus: a fixed tail appended.

± gives the standard deviation.
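Further: 24-mer peptide tiles fused after GFP, lentivirally expressed, FACS-sorted into six equal bins by GFP/DsRed ratio, decoded by Illumina sequencing, PSI is the read-weighted mean bin number.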

Regarding LKHQTVYRLLKCAPRGKNGFTPLH [FEM1A], the protein stability index runs as follows: (treatment: DMSO) 2.71 ± 0.69; (treatment: MLN4924 1 uM, 8 h) 2.39 ± 0.57.
The corresponding values for LKKGSKEKQADFLDKQMSRDEHRA [NFE2L1] are 5 ± 0.39 and 5.08 ± 0.32.
As for LKLVSFSKLCTSYSHSSTRDGRRD [GOSR1], the protein stability index runs as follows: (treatment: DMSO) 2.81 ± 0.3; (treatment: MLN4924 1 uM, 8 h) 2.79 ± 0.35.
For LKTFVKQTDHIKGIRQITSDDFCT [GFOD1], in that order: 3.29 ± 0.4 and 3.26 ± 0.23.
For LLALAGAVQRLEGALWGLQAQAVQ [SCARA5], in that order: 3.33 ± 0.29 and 3.48 ± 0.14.
The corresponding values for LLASLTGGVLIDRYGRRTAIILSS [SLC2A12] are 2.86 ± 0.5 and 3.06 ± 0.87.
Turning to LLAVPNIILTNQSVREVTQIKCIE [P2RY14], the protein stability index (treatment: DMSO) was found to be 2.53 ± 0.29 and the protein stability index (treatment: MLN4924 1 uM, 8 h) came to 2.35 ± 0.21.
For LLCGAAFGRLVANVLKSYIGLGHI [CLCN6], in that order: 2.66 ± 0.42 and 3.14 ± 0.46.
The corresponding values for LLHMPQPVNPELTAGPITGLVYRL [TRIM43] are 2.26 ± 0.3 and 2.67 ± 0.36.
For LLLGTAYSFYLFHPLAYGMVGPLA [POMT2], in that order: 3.32 ± 0.18 and 3.18 ± 0.59.
In the case of LLVVGGFGSQQSPIDVVEKYDPKT [KLHL12], the protein stability index reads like this: (treatment: DMSO) 3 ± 0.55; (treatment: MLN4924 1 uM, 8 h) 3.61 ± 0.33.
For LPCQHNLCRKCANDIFQAANPYWT [TRIM63], in that order: 2.38 ± 0.18 and 2.29 ± 0.14.
For LPNKQVLGLSKLARIVEIYSRRLQ [GCH1], in that order: 2.31 ± 0.5 and 2.08 ± 0.53.
The corresponding values for LPPCLLPLSPPTAPDRATAVATAS [TRIB3] are 4.45 ± 0.31 and 4.35 ± 0.26.
On to LPPPPPPSRGGNQLPRPPIVGGNK [WAS], for which the protein stability index by setting is: (treatment: DMSO) 5.11 ± 0.6; (treatment: MLN4924 1 uM, 8 h) 5.01 ± 0.33.
The corresponding values for LPSERLDFSMAEALNQEFLATRSN [PRPH] are 4.24 ± 0.17 and 4.3 ± 0.2.
With LPSVFGSLRDSGYFYDPIERDIEI [RSPH3], the protein stability index turned out to be 2.31 ± 0.37 (treatment: DMSO) and 2.64 ± 0.61 (treatment: MLN4924 1 uM, 8 h).
The corresponding values for LQAELAAQEALREKAAALERQLKV [LRRC45] are 4.18 ± 0.094 and 4.25 ± 0.29.
Consider LQASDRYRDLAGGTGRSAKEQVLR [FCHSD1], for which the protein stability index came to 4.18 ± 0.24 (treatment: DMSO) and 4.29 ± 0.11 (treatment: MLN4924 1 uM, 8 h).
The corresponding values for LQEPGEPQGPPASPSCPEEALAAT [PXN] are 5.44 ± 0.22 and 5.278 ± 0.023.
For the sequence LQISEELLSRNQLSTAASLGPSGL [LCOR], the protein stability index worked out at 3.5 ± 0.14 (treatment: DMSO) and 3.35 ± 0.41 (treatment: MLN4924 1 uM, 8 h).
For LQLKETLATQEPTDNQVRLRKRKE [DLC1], in that order: 5.18 ± 0.3 and 5.32 ± 0.24.
The sequence LQSLRPHDEDIKTTNVKSASRQKT [ZNF396] had a protein stability index (treatment: DMSO) of 5.14 ± 0.089 and a protein stability index (treatment: MLN4924 1 uM, 8 h) of 5.04 ± 0.28.
Turning to LREIVHKPGPITLTVAKCWDPSPR [DVL3], the protein stability index came to 2.8 ± 0.28 (treatment: DMSO) and 2.93 ± 0.32 (treatment: MLN4924 1 uM, 8 h).
The corresponding values for LRFCHNNKKAKRYLLHGLECVVAM [EIF5] are 2.14 ± 0.33 and 2.23 ± 0.6.
Take LRIPFPRDCGEEMQNGAGASRTST [TNXB]: the protein stability index (treatment: DMSO) turned out to be 4.02 ± 0.45 and the protein stability index (treatment: MLN4924 1 uM, 8 h) was determined as 4.28 ± 0.79.
For LRLEGLLCDVTLMPGDTDDAFPVH [KLHL13], in that order: 2.42 ± 0.24 and 2.48 ± 0.35.
For LRRVLDELTLARTDLEMQIEGLKE [KRT16], in that order: 2.9 ± 0.52 and 3.07 ± 0.14.
The corresponding values for LRSPRKFGVAGRSCQEVLRKGCLR [DFFB] are 2.9 ± 0.19 and 2.74 ± 0.35.
The sequence LRVMTTNIRSARGNNPNGREAKMI [ELOA2] came in with a protein stability index (treatment: DMSO) of 3.25 ± 0.18 and a protein stability index (treatment: MLN4924 1 uM, 8 h) of 3.49 ± 0.26.
LSFSDALLSIIATVMILPVTHTEI [TMEM175] registered a protein stability index (treatment: DMSO) of 3.15 ± 0.29 and a protein stability index (treatment: MLN4924 1 uM, 8 h) of 2.88 ± 0.58.
The corresponding values for LSILRHQNLLKELQDLALQGAKER [CHGA] are 3.02 ± 0.087 and 3.08 ± 0.27.
The corresponding values for LSIRCQHQEQVEDLTASHDAALLE [MTUS2] are 4.66 ± 0.22 and 4.86 ± 0.19.
LSLHVKSLGASPTVAGIVGSSYGI [MFSD9]: the protein stability index by setting is: (treatment: DMSO) 2.71 ± 0.93; (treatment: MLN4924 1 uM, 8 h) 2.42 ± 0.38.
The corresponding values for LSLLGKLTISAAFNIVYIYTSELY [SLC22A15] are 3.31 ± 0.21 and 3.25 ± 0.28.
For LSPEPPVYSLQDFDTLATVGTGTF [PRKX], in that order: 3.64 ± 0.21 and 3.59 ± 0.31.
The corresponding values for LSVLQIAQQDLAPDPDAWLRALGE [FANCE] are 2.81 ± 0.39 and 2.75 ± 0.3.
As to LTFAKSSWARQESLQERKQALYEY [AUP1], the protein stability index by setting is: (treatment: DMSO) 2.78 ± 0.43; (treatment: MLN4924 1 uM, 8 h) 2.67 ± 0.39.
The corresponding values for LTQKRSQLVKKLNDSDHQSSTSPL [VPS39] are 4.8 ± 0.23 and 4.69 ± 0.29.
For LVENIIDIYKQECSSRPLQKGSHP [TRIM63], in that order: 2.36 ± 0.17 and 2.56 ± 0.13.
On to LVLLIIIGIPLFFLELAVGQRIRR [SLC6A17], for which the protein stability index runs as follows: (treatment: DMSO) 3.2 ± 0.25; (treatment: MLN4924 1 uM, 8 h) 3.2 ± 0.5.
In the case of LVVLVVAVVASSVNSYYSSPAQQV [TOR1AIP2], the protein stability index is 3.22 ± 0.11 (treatment: DMSO) and 3.21 ± 0.23 (treatment: MLN4924 1 uM, 8 h).
For LVWIRGPGFGCKAVRCASGRCTVR [SDE2], in that order: 2.37 ± 0.87 and 2.36 ± 0.42.
In the case of LYAFFTRTHGDMHSLVRSRHRIPE [TRIB3], the protein stability index came out at 2.18 ± 0.046 (treatment: DMSO) and 2.26 ± 0.45 (treatment: MLN4924 1 uM, 8 h).
For LYQTELVENECYQVFLDRINRADY [TOR1AIP2], in that order: 2.45 ± 0.27 and 2.71 ± 0.15.
On to LYSLTLYGLRGPHKADSIQGTART [TNXB], for which the protein stability index is 2.11 ± 0.21 (treatment: DMSO) and 2.48 ± 0.3 (treatment: MLN4924 1 uM, 8 h).
In the case of LYYQSQELPNGSVKEAPAPTPTSL [PDZK1], the protein stability index was found to be 3.87 ± 0.27 (treatment: DMSO) and 3.93 ± 0.19 (treatment: MLN4924 1 uM, 8 h).
For MAAEIHSRPQSSRPVLLSKIEGHQ [WDFY1], in that order: 3.84 ± 0.13 and 3.88 ± 0.23.
For MAAMETETAPLTLESLPTDPLLLI [FBXO3], in that order: 3.44 ± 0.25 and 3.43 ± 0.18.
The corresponding values for MACPYSVLISGDIKDRLKKKEDCL [FAM98B] are 2.87 ± 0.071 and 3.49 ± 0.38.
On to MAGAPDERRRGPAAGEQLQQQHVS [ATP23], for which the protein stability index was found to be 5.058 ± 0.01 (treatment: DMSO) and 4.57 ± 0.25 (treatment: MLN4924 1 uM, 8 h).
MAGLSKEPNTLRAPRVRTAFTMEQ [VENTX]: the protein stability index (treatment: DMSO) was found to be 3.54 ± 0.28 and the protein stability index (treatment: MLN4924 1 uM, 8 h) came to 3.75 ± 0.22.
For MAQYKGAASEAGRAMHLMKKREKQ [FAM50A], the protein stability index (treatment: DMSO) came to 4.7 ± 0.34 and the protein stability index (treatment: MLN4924 1 uM, 8 h) was 4.47 ± 0.4.
Consider MDADEGQDMSQVSGKESPPVSDTP [IKZF1], for which the protein stability index (treatment: DMSO) is 5.35 ± 0.28 and the protein stability index (treatment: MLN4924 1 uM, 8 h) was 5.28 ± 0.6.
For the sequence MDDDFGVVKEEISDDNAKLPCFNG [DVL3], the protein stability index by setting is: (treatment: DMSO) 5.18 ± 0.19; (treatment: MLN4924 1 uM, 8 h) 5.21 ± 0.15.
For MEALKLQPGLSFLNLGSGTGYLST [PCMTD1], in that order: 2.3 ± 0.2 and 2.31 ± 0.22.
Consider MEEMEEELKCPVCGSFYREPIILP [TRIM9], for which the protein stability index reads like this: (treatment: DMSO) 4.05 ± 0.35; (treatment: MLN4924 1 uM, 8 h) 4.38 ± 0.28.
The corresponding values for MEGTPTIKSKKKLLQIIDTTLLKC [VPS39] are 2.25 ± 0.24 and 2.36 ± 0.25.
For MELSWGQSPGQPVQGGSEAWGPGT [TEX19], in that order: 3.86 ± 0.53 and 4.06 ± 0.36.
Turning to MGGAVSAGEDNDELIDNLKEAQYI [PCMTD2], the protein stability index is, setting by setting: (treatment: DMSO) 5.1 ± 0.15; (treatment: MLN4924 1 uM, 8 h) 4.95 ± 0.21.
For MGQWQLEVGDPAPLGAGNLGPELI [DPCD], in that order: 3.42 ± 0.23 and 3.48 ± 0.2.
As to MGSGTSTQHHFAFQNAERAFKAAA [PPEF2], the protein stability index reads like this: (treatment: DMSO) 3.46 ± 0.43; (treatment: MLN4924 1 uM, 8 h) 2.98 ± 0.25.
The corresponding values for MKVKVIPVLEDNYMYLVIEELTRE [HAGHL] are 2.94 ± 0.55 and 2.95 ± 0.56.
Turning to MLSPQRVAAAASRGADDAMESSKP [ATL3], the protein stability index is, setting by setting: (treatment: DMSO) 5.21 ± 0.22; (treatment: MLN4924 1 uM, 8 h) 5.25 ± 0.25.
In turn, MMRGLSYSLTTSSTHKSSLCKVEI [RAB40A] showed a protein stability index (treatment: DMSO) of 2.31 ± 0.59 and a protein stability index (treatment: MLN4924 1 uM, 8 h) of 2.28 ± 0.46.
In the case of MNPYNAVLTKKFQVTMRGLLSCLS [FBXO39], the protein stability index was 2.7 ± 0.75 (treatment: DMSO) and 2.72 ± 0.23 (treatment: MLN4924 1 uM, 8 h).
For MQEFFGLKVTGKPDAETLKVMKQP [MMP1], the protein stability index came to 3.47 ± 0.15 (treatment: DMSO) and 3.53 ± 0.34 (treatment: MLN4924 1 uM, 8 h).
The corresponding values for MQRKQSLGKPDQKDLNENLAATQG [DLC1] are 5.11 ± 0.37 and 4.99 ± 0.45.
The corresponding values for MRDLYMKNGQGFALVYSITAQSTF [RAP1B] are 2.85 ± 0.79 and 2.78 ± 0.6.
For MSGDGATEQAAEYVPEKVKKAEKK [CSTF3], in that order: 5.52 ± 0.18 and 5.65 ± 0.15.
MSGQTLTDRIAAAQYSVTGSAVAR [SNAP91]: the protein stability index amounted to 4 ± 0.19 (treatment: DMSO) and 3.98 ± 0.2 (treatment: MLN4924 1 uM, 8 h).
For MSPGDCPPETTETPKCSSPRGQEG [YJU2B], in that order: 5.44 ± 0.43 and 5.5 ± 0.11.
With MSPLQAMSSYTVAGRNVLRWDLSP [NLN], the protein stability index is, setting by setting: (treatment: DMSO) 2.06 ± 0.31; (treatment: MLN4924 1 uM, 8 h) 2.55 ± 0.42.

Source of the values: the supplement of paper PMC10567573.
